Reference: publication PMC2120337

Molecular target: bacterially expressed beta18 (Drosophila)
Assay: chymotrypsin protection

Sequence of bacterially expressed beta18 (Drosophila) (Q00963 whole entry): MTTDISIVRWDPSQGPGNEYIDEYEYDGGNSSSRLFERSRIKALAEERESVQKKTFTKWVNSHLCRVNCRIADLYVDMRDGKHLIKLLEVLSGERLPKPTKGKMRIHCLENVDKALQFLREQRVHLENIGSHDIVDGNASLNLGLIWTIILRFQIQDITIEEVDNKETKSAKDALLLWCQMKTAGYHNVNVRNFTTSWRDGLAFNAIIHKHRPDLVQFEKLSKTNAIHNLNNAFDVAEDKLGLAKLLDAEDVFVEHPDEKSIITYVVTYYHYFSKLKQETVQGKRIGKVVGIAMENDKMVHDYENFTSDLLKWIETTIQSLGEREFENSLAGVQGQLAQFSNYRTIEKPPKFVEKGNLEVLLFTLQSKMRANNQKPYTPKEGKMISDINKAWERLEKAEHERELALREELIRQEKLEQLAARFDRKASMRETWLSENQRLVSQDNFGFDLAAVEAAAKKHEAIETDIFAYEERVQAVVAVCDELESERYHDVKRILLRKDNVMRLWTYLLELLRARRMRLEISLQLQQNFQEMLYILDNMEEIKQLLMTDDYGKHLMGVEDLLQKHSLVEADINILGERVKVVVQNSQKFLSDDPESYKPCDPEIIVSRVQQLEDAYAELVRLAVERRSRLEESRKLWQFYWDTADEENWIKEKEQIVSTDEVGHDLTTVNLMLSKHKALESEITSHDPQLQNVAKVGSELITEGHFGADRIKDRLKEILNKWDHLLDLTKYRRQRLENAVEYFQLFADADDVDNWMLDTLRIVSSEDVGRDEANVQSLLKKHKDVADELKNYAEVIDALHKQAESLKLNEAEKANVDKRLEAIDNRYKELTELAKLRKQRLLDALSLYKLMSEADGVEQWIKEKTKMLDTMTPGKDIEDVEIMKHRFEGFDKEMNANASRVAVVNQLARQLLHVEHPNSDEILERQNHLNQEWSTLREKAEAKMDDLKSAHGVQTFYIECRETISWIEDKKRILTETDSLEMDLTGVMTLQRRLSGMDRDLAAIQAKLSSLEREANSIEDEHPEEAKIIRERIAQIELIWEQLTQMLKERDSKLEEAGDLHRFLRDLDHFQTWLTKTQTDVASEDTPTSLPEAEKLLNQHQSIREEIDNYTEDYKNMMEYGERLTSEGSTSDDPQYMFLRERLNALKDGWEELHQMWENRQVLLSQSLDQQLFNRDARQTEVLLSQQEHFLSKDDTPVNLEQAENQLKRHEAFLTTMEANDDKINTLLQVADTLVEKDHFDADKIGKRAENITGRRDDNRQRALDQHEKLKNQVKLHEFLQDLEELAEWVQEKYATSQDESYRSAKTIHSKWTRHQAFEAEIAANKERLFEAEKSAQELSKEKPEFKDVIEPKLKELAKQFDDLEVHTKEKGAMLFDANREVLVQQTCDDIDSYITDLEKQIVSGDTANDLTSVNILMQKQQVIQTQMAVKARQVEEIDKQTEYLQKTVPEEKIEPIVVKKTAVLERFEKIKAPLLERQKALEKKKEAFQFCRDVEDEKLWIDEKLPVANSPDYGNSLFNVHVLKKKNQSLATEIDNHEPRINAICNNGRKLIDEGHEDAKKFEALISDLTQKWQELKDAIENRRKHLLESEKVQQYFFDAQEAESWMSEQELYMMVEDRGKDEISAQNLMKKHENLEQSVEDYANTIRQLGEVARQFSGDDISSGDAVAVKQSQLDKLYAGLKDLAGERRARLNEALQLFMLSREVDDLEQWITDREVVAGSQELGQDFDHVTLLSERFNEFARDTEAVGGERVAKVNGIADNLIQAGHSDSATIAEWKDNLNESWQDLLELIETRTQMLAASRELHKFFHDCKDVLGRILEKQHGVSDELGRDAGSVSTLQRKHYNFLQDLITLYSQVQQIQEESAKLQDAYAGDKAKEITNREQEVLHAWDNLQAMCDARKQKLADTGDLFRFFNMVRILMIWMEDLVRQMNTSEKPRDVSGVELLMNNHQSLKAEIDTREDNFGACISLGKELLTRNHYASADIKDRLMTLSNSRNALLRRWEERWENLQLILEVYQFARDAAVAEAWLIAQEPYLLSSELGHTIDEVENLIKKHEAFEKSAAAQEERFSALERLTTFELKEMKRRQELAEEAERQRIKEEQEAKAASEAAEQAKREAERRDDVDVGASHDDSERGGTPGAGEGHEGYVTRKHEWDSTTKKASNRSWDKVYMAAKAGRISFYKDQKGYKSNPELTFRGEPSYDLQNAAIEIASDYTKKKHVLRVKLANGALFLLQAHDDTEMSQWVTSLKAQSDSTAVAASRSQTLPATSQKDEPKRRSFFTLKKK

B1: bacterially expressed alpha0-1(R22S) (domain or fragment)
chain: MENFTPKEVKILETVEDIQERSEQVLSRYNDFKIETRQKREKLEDSRRFQYFKRDADELESWIHEKLQAASEESYRDPTNLQAKIQKHQAFEAEVSAHSNAIVSLDNTGQEMINQQHFASESIQVRLDELHKLWELLLSRLAEKGLKLQQ
- percent intact (chymotrypsin protection, beta18 present): 61.2%
